From patent publication US20130022551A1 (TRUSTEES OF BOSTON UNIVERSITY, published 2013) come the findings set out here.

One test has as its target rat DEspR (rat) (UniProt D3ZGZ6). The experiment in a line: in vivo contrast-enhanced ultrasound of carotid arteries, pre-/post-destruction difference, isotype control microbubbles in Tg25+ rats.
Test [1] has as its target T1, human dual endothelin-1/VEGF signal peptide receptor (hDEspR) (human) (UniProt B0L3A2).
T1 sequence: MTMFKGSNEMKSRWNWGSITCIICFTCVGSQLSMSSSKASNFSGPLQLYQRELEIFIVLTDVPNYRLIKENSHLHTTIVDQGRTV
The test can be described thus: microbubble adherence to HUVECs, isotype control at 800× MB to cell ratio.

For test [2], the target named is T1, human dual endothelin-1/VEGF signal peptide receptor (hDEspR) (human). The experiment in a line: cell-based or functional assay.
Test [3] addresses T2, antigenic hDEspR 9-aa peptide, NH2-terminal 9 amino acids of hDEspR (human).
T2 construct: Free peptide coated directly on ELISA wells; The KLH conjugate was used only for immunisation; also called DEspR(1-9)
T2 peptide: MTMFKGSNE
The experiment in a line: indirect ELISA, free hDEspR 9-aa peptide coated on the plate, hybridoma supernatant at 1 ug/ml in two-fold serial dilutions (1 = 1/2 ... 12 = 1/4096), HRP anti-IgG, OD450. The procedure:
Monoclonal antibody characterization by ELISA and Western blot analysis. The M₁[…]₉ antigenic peptide was coated directly on wells of a microtiter plate. Appropriate dilutions of primary antibodies were incubated at 37° C. for 1 hr. The wells were then incubated with HRP labeled anti-IgG (SIGMA cat#A0168) at 1:9000 at 37° C. for 1 hr. The reactions were visualized by the addition of 3,3′5,5′-tetramethylbenzidine substrate (incubation at 37° C. for 10 min) and read spectrophotometrically at 450 nm. Western blot analysis was done as described using equal amounts of whole cell protein extract (40 μg) from Cos1 cell transfectants stably expressing hDEspR[17] and corresponding candidate monoclonal antibodies raised against hDEspR specific synthetic peptide. Immunoreactive hDEspR (10 kDa polypeptide) was detected by chemiluminescence using the ECL Western Detection kit (GE Healthcare).

For test [4], the target named is T3, human dual endothelin-1/VEGF signal peptide receptor (hDEspR) (human, UniProt B0L3A2 1-85).
T3 sequence: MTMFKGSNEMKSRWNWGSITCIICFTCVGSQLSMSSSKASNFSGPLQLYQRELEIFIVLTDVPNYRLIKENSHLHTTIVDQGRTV
The experiment in a line: cell-based or functional assay.

As for “control isotype-targeted microbubbles (MBC)”, the Contrast intensity signal Δ with rat DEspR (rat) worked out at 1.9. In test [1], the % of HUVECs bound came out at 6.8%.
With “endothelin-1 (ET1) (from UniProt P05305 53-73) (ligand)”, in test [2], the BRCA1 S1497 phosphorylation, % change from control (antibody microarray, Cos1-hDEspR, 30 min, 10 nM) came to 32 % CFC; the CDK1/2 T14/Y15 phosphorylation, % change from control worked out at 53 % CFC; the CDK1/2 Y15 phosphorylation, % change from control was 281 % CFC; the ERK1/2 T202 + Y204; T185 + Y187 phosphorylation, % change from control came out at 135 % CFC. In test [2], this molecule yielded an FAK S722 phosphorylation, % change from control of 55 % CFC; an FAK S732 phosphorylation, % change from control of 62 % CFC; an FAK panspecific (expression), % change from control of 205 % CFC; a Met panspecific (expression), % change from control of 384 % CFC. Also, in test [2], the PCNA panspecific (expression), % change from control was -47 % CFC; the PKCa T638/T641 phosphorylation, % change from control stood at 137 % CFC; the PKCe panspecific (expression), % change from control stood at 103 % CFC; the Raf1 S259 phosphorylation, % change from control is 12 % CFC. In test [2], this molecule had an SHP2 S576 phosphorylation, % change from control of 14 % CFC; an STAT1 S727 phosphorylation, % change from control of 86 % CFC; an STAT1 Y701 phosphorylation, % change from control of 95 % CFC; an STAT3 S727 phosphorylation, % change from control of 133 % CFC. In test [2], the Shc1 (ShcA) Y349, Y350 phosphorylation, % change from control was determined as 9 % CFC; the Smad 1/5/9 S463 + S465/S465 + S467 phosphorylation, % change from control was determined as 18 % CFC; the Src Y418 phosphorylation, % change from control was -11 % CFC; the Src Y529 phosphorylation, % change from control is -20 % CFC.

B1: anti-hDEspR 7C5B2 monoclonal antibody (antibody, IgG2b, V domains shown)
VH: QVQLKESGPGLVAPSQSLSITCTVSGFSLTSYDISWIRQPPGKGLEWLGVIWTGGGTNYNSAFMSRLSISKDNSKSQVFLKMNSLQTDDTAIYYCVRDRDYDGWYFDVWGAGTTVTVSS
VL: DVLMTQTPLSLPVSLGDQASISCRSSQSIVHSNGNTYLEWYLQKPGQSPKLLIYKVSNRFSGVPDRFSGSGSGTDFTLKISRVEAEDLGVYYCFQGSHVPYTFGGGTKLEIK
notes: Tested as hybridoma supernatant and as purified antibody; also called 7C5B2 antibody; 7C5B2 anti-DEspR antibody
For the molecule B1, in test [3], the binding result is listed as “binds”. In addition, in test [4], the “EC50, inhibition of MDA-MB-468 tumor cell invasiveness” value worked out at 3.55 nM; the “EC50 for # branching points, inhibition of serum-induced HUVEC tubulogenesis” value was determined as 3.97 nM; the “EC50 for total tube length, inhibition of serum-induced HUVEC tubulogenesis” value worked out at 4.34 nM.
